How the values were obtained:
Experiment in all cases: EMSA
[1] = tested on: OCT4-WT (Homo sapiens)
[2] = tested on: OCT4-del-73 (Homo sapiens)
[3] = tested on: OCT4-DBD (Homo sapiens)

| Substance | Kd [1] [nM] | Kd [2] [nM] | Kd [3] [nM] |
| --- | --- | --- | --- |
| LIN28B-DNA | 1.44 | 0.85 | 4.53 |
| LIN28B-nucleosome |  | 0.949 |  |

Reference: article PMC7611526
